Paper PMC2729916 (Nature, 2009)

Key:
Assay in all cases: far-Western, overlay or dot blot
E. coli UvrA = target: T1, E. coli UvrA (E. coli, UniProt P0A698 1-940)
T1 sequence (looked up): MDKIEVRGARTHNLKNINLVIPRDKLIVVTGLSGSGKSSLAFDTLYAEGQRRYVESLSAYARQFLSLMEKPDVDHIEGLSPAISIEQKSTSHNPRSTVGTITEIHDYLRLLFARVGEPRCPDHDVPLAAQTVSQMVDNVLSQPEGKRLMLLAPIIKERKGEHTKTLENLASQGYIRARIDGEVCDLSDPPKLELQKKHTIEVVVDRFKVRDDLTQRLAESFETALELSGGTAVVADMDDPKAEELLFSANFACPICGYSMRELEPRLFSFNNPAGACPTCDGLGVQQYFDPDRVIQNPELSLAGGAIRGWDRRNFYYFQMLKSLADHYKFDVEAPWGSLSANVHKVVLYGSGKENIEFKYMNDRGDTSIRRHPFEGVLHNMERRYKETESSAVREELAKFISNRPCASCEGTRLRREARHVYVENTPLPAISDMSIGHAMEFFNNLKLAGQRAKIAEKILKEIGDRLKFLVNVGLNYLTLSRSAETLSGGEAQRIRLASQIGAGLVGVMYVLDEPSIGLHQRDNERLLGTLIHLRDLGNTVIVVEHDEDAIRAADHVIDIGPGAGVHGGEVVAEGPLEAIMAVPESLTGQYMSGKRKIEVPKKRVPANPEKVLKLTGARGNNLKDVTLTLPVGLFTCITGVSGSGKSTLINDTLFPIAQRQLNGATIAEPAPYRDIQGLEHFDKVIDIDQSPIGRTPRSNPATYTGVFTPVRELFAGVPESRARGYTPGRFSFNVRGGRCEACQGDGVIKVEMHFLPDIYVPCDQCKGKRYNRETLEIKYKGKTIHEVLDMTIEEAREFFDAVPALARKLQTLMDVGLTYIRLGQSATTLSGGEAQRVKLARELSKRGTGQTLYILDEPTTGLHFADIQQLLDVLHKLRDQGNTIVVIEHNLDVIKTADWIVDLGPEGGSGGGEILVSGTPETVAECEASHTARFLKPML

E. coli UvrC = target: T2, E. coli UvrC (E. coli, UniProt P0A8G0 1-610)
T2 sequence (looked up): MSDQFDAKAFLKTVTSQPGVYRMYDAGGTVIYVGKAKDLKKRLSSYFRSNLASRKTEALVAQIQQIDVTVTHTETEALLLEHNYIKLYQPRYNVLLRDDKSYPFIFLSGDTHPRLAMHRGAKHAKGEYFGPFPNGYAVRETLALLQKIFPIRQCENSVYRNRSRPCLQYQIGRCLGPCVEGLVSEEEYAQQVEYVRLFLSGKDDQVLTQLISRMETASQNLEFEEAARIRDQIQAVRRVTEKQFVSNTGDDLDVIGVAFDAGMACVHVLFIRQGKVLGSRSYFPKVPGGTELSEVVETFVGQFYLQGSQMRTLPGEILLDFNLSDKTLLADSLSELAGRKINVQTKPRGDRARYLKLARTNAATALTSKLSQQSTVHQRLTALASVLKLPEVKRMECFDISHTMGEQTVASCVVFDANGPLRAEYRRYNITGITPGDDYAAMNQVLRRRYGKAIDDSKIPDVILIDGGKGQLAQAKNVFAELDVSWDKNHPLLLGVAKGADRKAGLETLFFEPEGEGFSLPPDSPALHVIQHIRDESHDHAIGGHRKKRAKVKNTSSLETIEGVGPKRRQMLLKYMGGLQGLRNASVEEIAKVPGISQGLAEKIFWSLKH

FLAG-UvrA (E. coli) = target: T3, FLAG-UvrA (E. coli) (E. coli, UniProt P0A698 1-940)
T3 sequence (looked up): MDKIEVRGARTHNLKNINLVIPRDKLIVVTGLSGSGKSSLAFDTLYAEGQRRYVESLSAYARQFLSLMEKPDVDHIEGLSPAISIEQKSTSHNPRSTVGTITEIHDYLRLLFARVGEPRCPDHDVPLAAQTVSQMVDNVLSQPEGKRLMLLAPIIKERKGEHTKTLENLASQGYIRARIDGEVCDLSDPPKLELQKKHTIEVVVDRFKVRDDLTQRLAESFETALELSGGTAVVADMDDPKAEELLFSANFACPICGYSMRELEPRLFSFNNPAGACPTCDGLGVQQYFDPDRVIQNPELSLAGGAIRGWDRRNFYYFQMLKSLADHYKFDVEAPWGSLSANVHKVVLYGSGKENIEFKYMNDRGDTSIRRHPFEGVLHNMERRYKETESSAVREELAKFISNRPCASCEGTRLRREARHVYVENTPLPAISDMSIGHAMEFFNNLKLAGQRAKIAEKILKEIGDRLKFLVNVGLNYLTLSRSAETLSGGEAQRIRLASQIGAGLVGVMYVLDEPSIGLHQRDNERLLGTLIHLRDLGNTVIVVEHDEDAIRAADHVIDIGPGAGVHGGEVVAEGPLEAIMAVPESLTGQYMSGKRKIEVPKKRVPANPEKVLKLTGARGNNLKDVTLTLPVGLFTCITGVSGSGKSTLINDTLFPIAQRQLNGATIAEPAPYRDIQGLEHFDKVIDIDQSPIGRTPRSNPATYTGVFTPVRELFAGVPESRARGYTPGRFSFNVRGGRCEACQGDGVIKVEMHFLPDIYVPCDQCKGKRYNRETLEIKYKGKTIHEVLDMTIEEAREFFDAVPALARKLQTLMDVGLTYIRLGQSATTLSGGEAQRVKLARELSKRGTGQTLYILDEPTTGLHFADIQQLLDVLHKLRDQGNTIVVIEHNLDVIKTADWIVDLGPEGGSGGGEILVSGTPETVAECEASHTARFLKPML

B1: FLAG-eAtl (E. coli alkyltransferase-like protein) (natural protein, UniProt P0AFP2 1-129, looked up)
chain: MLVSCAMRLHSGVFPDYAEKLPQEEKMEKEDSFPQRVWQIVAAIPEGYVTTYGDVAKLAGSPRAARQVGGVLKRLPEGSTLPWHRVVNRHGTISLTGPDLQRQRQALLAEGVMVSGSGQIDLQRYRWNY
B1: binds (E. coli UvrA); binds (E. coli UvrC).

B2: S. pombe Atl1 (alkyltransferase-like protein 1) (natural protein)
chain: MRMDEFYTKVYDAVCEIPYGKVSTYGEIARYVGMPSYARQVGQAMKHLHPETHVPWHRVINSRGTISKRDISAGEQRQKDRLEEEGVEIYQTSLGEYKLNLPEYMWKP
B2: binds (FLAG-UvrA (E. coli)).
